Experimental data taken from patent publication US20140179594A1, “STREPTOCOCCUS BACTERIOPHAGE LYSINS FOR TREATMENT OF GRAM POSITIVE BACTERIA IN COMPANION ANIMALS AND LIVESTOCK” (priority 2011, published 2014).

What was measured:
[1] = system: S. uberis 27598; assay: ΔPlySs1 OD600 lysis, 1 hr; assay type: cell-based
[2] = system: S. simulans TNK3; assay: ΔPlySs1 OD600 lysis, 1 hr; assay type: cell-based
[3] = system: E. faecium EFSK2; assay: ΔPlySs1 OD600 lysis, 1 hr; assay type: cell-based
[4] = system: B. thuringiensis HD73; assay: ΔPlySs1 OD600 lysis, 1 hr; assay type: cell-based
[5] = system: purified S. suis cell walls (from type strain 5735); assay: PlySs1 bond specificity, double digestion with HEWL, mass spectrum; assay type: biochemical; conditions: double digestion with HEWL and PlySs1
Text: To determine the bond specificity of the enzymatic domain of PlySs1, purified S. suis cell walls (from type strain 5735) were subject to double digestion with HEWL (a muramidase) and PlySs1. The two predominant peaks were m/z=718 and m/z=734. This corresponds exactly to the predicted masses of the [Na-M]+ and [K-M]+ adducts of GlcNAc-MurNAc-LAla-D-Gln. […] When a mass spectrum was taken of undigested cell wall, the above two peaks were absent.

[6] = system: S. epidermidis HN1292; assay: ΔPlySs1 OD600 lysis, 1 hr; assay type: cell-based
[7] = system: S. agalactiae 090R; assay: ΔPlySs1 OD600 lysis, 1 hr; assay type: cell-based
[8] = system: S. pyogenes A486; assay: ΔPlySs1 OD600 lysis, 1 hr; assay type: cell-based
[9] = system: S. suis ST10; assay: ΔPlySs1 OD600 lysis, 1 hr; assay type: cell-based
Procedure: (§1) Given the above experiments, the following optimal buffering conditions were employed for all further in vitro experiments with ΔPlySs1: 20 mM phosphate buffer, pH=7.8, 2 mM EDTA. A range of lysin concentrations, from 6.5-130 μg/ml, were introduced to live S. suis cells in this buffer. Three strains were considered particularly relevant: 7711, the serotype 7 strain that encodes PlySs1; 5735, the serotype 2 reference strain; and 7997, a highly virulent serotype 9 strain. In terms of bacterial viability, only the highest PlySs1-concentration (130 μg/ml) led to a >90% decrease in CFUs for 7711, S735, and 7997 after 1 hr treatment (TABLE 2). The lysin was also tested against actively-dividing cells in broth culture (strain 7711) (FIG. 20).
(§2) ΔPlySs1 was further tested against a panel of 19 other S. suis strains of diverse serotypes, as well as other species of Gram-positive bacteria. The same lysin concentrations were used as above. For each dosage, the observed lysis values after 1 hr are listed in TABLE 3 and TABLE 4, and the information is summarized graphically in FIG. 21.

[10] = system: S. suis ST14; assay: ΔPlySs1 OD600 lysis, 1 hr; assay type: cell-based
Procedure: as §1, §2

[11] = system: S. suis ST7; assay: ΔPlySs1 OD600 lysis, 1 hr; assay type: cell-based
Procedure: as §1, §2

[12] = system: S. suis ST9; assay: ΔPlySs1 OD600 lysis, 1 hr; assay type: cell-based
Procedure: as §1, §2

[13] = system: S. rattus BHT; assay: ΔPlySs1 OD600 lysis, 1 hr; assay type: cell-based
[14] = system: S. dysgalactiae 21597; assay: ΔPlySs1 OD600 lysis, 1 hr; assay type: cell-based
[15] = system: S. pyogenes D471; assay: ΔPlySs1 OD600 lysis, 1 hr; assay type: cell-based
[16] = system: B. subtilis SL4; assay: ΔPlySs1 OD600 lysis, 1 hr; assay type: cell-based
[17] = system: S. mutans U159; assay: ΔPlySs1 OD600 lysis, 1 hr; assay type: cell-based
[18] = system: E. faecalis V583; assay: ΔPlySs1 OD600 lysis, 1 hr; assay type: cell-based

B1: ΔPlySs1: truncated PlySs1 lysin with N-terminal enzymatic and central binding domains, N-terminal 254 amino acids, SEQ ID NO:2 (protein, listed as Streptococcus suis)
chain: MTINLETSIRWMSDRVGKVSYSMDYRNGPNSYDCSSAVYYALMAGGAISAGWAVNTEYMHDWLIRNGYVLVAENKPFNAQRHDVCILGKRGYSSGAGGHVVIFVDNVNVIHCNYARNGISIDNYNQVHRGMYYYLYRPANQPSISNKSLDQLVKETLAGVHGNGDTRKASLGSQYEAVMAVINGKASASEKSDEELAREVLAGKHGAGEDRKRSLGPRYEPVQAKVNELLKAKEKPSETAKNEPQTVQFKEDGDL
1-hour treated/untreated OD600-ratio ([1]; 6.5 μg/ml): 0.42
1-hour treated/untreated OD600-ratio ([1]; 13 μg/ml): 0.23
1-hour treated/untreated OD600-ratio ([1]; 30 μg/ml): 0.16
1-hour treated/untreated OD600-ratio ([1]; 65 μg/ml): 0.14
1-hour treated/untreated OD600-ratio ([1]; 130 μg/ml): 0.12
1-hour treated/untreated OD600-ratio ([2]; 6.5 μg/ml): 0.96
1-hour treated/untreated OD600-ratio ([2]; 13 μg/ml): 1.00
1-hour treated/untreated OD600-ratio ([2]; 30 μg/ml): 1.00
1-hour treated/untreated OD600-ratio ([2]; 65 μg/ml): 1.00
1-hour treated/untreated OD600-ratio ([2]; 130 μg/ml): 0.96
1-hour treated/untreated OD600-ratio ([3]; 6.5 μg/ml): 0.85
1-hour treated/untreated OD600-ratio ([3]; 13 μg/ml): 0.67
1-hour treated/untreated OD600-ratio ([3]; 30 μg/ml): 0.52
1-hour treated/untreated OD600-ratio ([3]; 65 μg/ml): 0.32
1-hour treated/untreated OD600-ratio ([3]; 130 μg/ml): 0.13
1-hour treated/untreated OD600-ratio ([4]; 6.5 μg/ml): 0.99
1-hour treated/untreated OD600-ratio ([4]; 13 μg/ml): 0.98
1-hour treated/untreated OD600-ratio ([4]; 30 μg/ml): 0.93
1-hour treated/untreated OD600-ratio ([4]; 65 μg/ml): 0.86
1-hour treated/untreated OD600-ratio ([4]; 130 μg/ml): 0.60
bond specificity of the enzymatic domain [5]: gamma-endopeptidase activity
1-hour treated/untreated OD600-ratio ([6]; 6.5 μg/ml): 1.04
1-hour treated/untreated OD600-ratio ([6]; 13 μg/ml): 1.00
1-hour treated/untreated OD600-ratio ([6]; 30 μg/ml): 0.96
1-hour treated/untreated OD600-ratio ([6]; 65 μg/ml): 0.94
1-hour treated/untreated OD600-ratio ([6]; 130 μg/ml): 0.87
1-hour treated/untreated OD600-ratio ([7]; 6.5 μg/ml): 0.97
1-hour treated/untreated OD600-ratio ([7]; 13 μg/ml): 0.99
1-hour treated/untreated OD600-ratio ([7]; 30 μg/ml): 0.97
1-hour treated/untreated OD600-ratio ([7]; 65 μg/ml): 0.98
1-hour treated/untreated OD600-ratio ([7]; 130 μg/ml): 0.93
1-hour treated/untreated OD600-ratio ([8]; 6.5 μg/ml): 0.12
1-hour treated/untreated OD600-ratio ([8]; 13 μg/ml): 0.13
1-hour treated/untreated OD600-ratio ([8]; 30 μg/ml): 0.13
1-hour treated/untreated OD600-ratio ([8]; 65 μg/ml): 0.11
1-hour treated/untreated OD600-ratio ([8]; 130 μg/ml): 0.10
1-hour treated/untreated OD600-ratio ([9]; 6.5 μg/ml): 0.85
1-hour treated/untreated OD600-ratio ([9]; 13 μg/ml): 0.72
1-hour treated/untreated OD600-ratio ([9]; 30 μg/ml): 0.55
1-hour treated/untreated OD600-ratio ([9]; 65 μg/ml): 0.44
1-hour treated/untreated OD600-ratio ([9]; 130 μg/ml): 0.28
1-hour treated/untreated OD600-ratio ([10]; 6.5 μg/ml): 0.79
1-hour treated/untreated OD600-ratio ([10]; 13 μg/ml): 0.57
1-hour treated/untreated OD600-ratio ([10]; 30 μg/ml): 0.33
1-hour treated/untreated OD600-ratio ([10]; 65 μg/ml): 0.15
1-hour treated/untreated OD600-ratio ([10]; 130 μg/ml): 0.06
1-hour treated/untreated OD600-ratio ([11]; 6.5 μg/ml): 0.65
1-hour treated/untreated OD600-ratio ([11]; 13 μg/ml): 0.47
1-hour treated/untreated OD600-ratio ([11]; 30 μg/ml): 0.34
1-hour treated/untreated OD600-ratio ([11]; 65 μg/ml): 0.22
1-hour treated/untreated OD600-ratio ([11]; 130 μg/ml): 0.11
1-hour treated/untreated OD600-ratio ([12]; 6.5 μg/ml): 0.50
1-hour treated/untreated OD600-ratio ([12]; 13 μg/ml): 0.30
1-hour treated/untreated OD600-ratio ([12]; 30 μg/ml): 0.23
1-hour treated/untreated OD600-ratio ([12]; 65 μg/ml): 0.13
1-hour treated/untreated OD600-ratio ([12]; 130 μg/ml): 0.05
1-hour treated/untreated OD600-ratio ([13]; 6.5 μg/ml): 0.82
1-hour treated/untreated OD600-ratio ([13]; 13 μg/ml): 0.84
1-hour treated/untreated OD600-ratio ([13]; 30 μg/ml): 0.82
1-hour treated/untreated OD600-ratio ([13]; 65 μg/ml): 0.83
1-hour treated/untreated OD600-ratio ([13]; 130 μg/ml): 0.79
1-hour treated/untreated OD600-ratio ([14]; 6.5 μg/ml): 0.26
1-hour treated/untreated OD600-ratio ([14]; 13 μg/ml): 0.18
1-hour treated/untreated OD600-ratio ([14]; 30 μg/ml): 0.12
1-hour treated/untreated OD600-ratio ([14]; 65 μg/ml): 0.10
1-hour treated/untreated OD600-ratio ([14]; 130 μg/ml): 0.09
1-hour treated/untreated OD600-ratio ([15]; 6.5 μg/ml): 0.39
1-hour treated/untreated OD600-ratio ([15]; 13 μg/ml): 0.27
1-hour treated/untreated OD600-ratio ([15]; 30 μg/ml): 0.17
1-hour treated/untreated OD600-ratio ([15]; 65 μg/ml): 0.13
1-hour treated/untreated OD600-ratio ([15]; 130 μg/ml): 0.09
1-hour treated/untreated OD600-ratio ([16]; 6.5 μg/ml): 1.07
1-hour treated/untreated OD600-ratio ([16]; 13 μg/ml): 1.05
1-hour treated/untreated OD600-ratio ([16]; 30 μg/ml): 1.04
1-hour treated/untreated OD600-ratio ([16]; 65 μg/ml): 1.03
1-hour treated/untreated OD600-ratio ([16]; 130 μg/ml): 0.96
1-hour treated/untreated OD600-ratio ([17]; 6.5 μg/ml): 0.95
1-hour treated/untreated OD600-ratio ([17]; 13 μg/ml): 0.99
1-hour treated/untreated OD600-ratio ([17]; 30 μg/ml): 0.94
1-hour treated/untreated OD600-ratio ([17]; 65 μg/ml): 0.76
1-hour treated/untreated OD600-ratio ([17]; 130 μg/ml): 0.85
1-hour treated/untreated OD600-ratio ([18]; 6.5 μg/ml): 0.98
1-hour treated/untreated OD600-ratio ([18]; 13 μg/ml): 0.93
1-hour treated/untreated OD600-ratio ([18]; 30 μg/ml): 0.84
1-hour treated/untreated OD600-ratio ([18]; 65 μg/ml): 0.71
1-hour treated/untreated OD600-ratio ([18]; 130 μg/ml): 0.52
